Measurements reported in patent publication US20260070987A1.
Residue numbers refer to the chain shown, from its start. Names and notes keep the numbering of the source.

B1: equine IgG1 G426T (antibody, part only; not given: variable domains, not shown: another chain or arm of the molecule)
constant: ASTTAPKVFALAPGCGTTSDSTVALGCLVSGYFPEPVKVSWNSGSLTSGVHTFPSVLQSSGFYSLSSMVTVPASTWTSETYICNVVHAASNFKVDKRIEPIPDNHQKVCDMSKCPKCPAPELLGGPSVFIFPPNPKDTLMITRTPEVTCVVVDVSQENPDVKFNWYMDGVEVRTATTRPKEEQFNSTYRVVSVLRIQHQDWLSGKEFKCKVNNQALPQPIERTITKTKGRSQEPQVYVLAPHPDELSKSKVSVTCLVKDFYPPEINIEWQSNGQPELETKYSTTQAQQDSDGSYFLYSKLSVDRNRWQQGTTFTCTVMHEALHNHYTQKNVSKNPGK
B2: equine IgG1 N434E (antibody, part only; not given: variable domains, not shown: another chain or arm of the molecule)
constant: B1 constant with T316G, N324E
B3: equine IgG1 M428L (antibody, part only; not given: variable domains, not shown: another chain or arm of the molecule)
constant: B1 constant with T316G, M318L
B4: equine IgG1 T286A (antibody, part only; not given: Variable domains, not shown: another chain or arm of the molecule)
constant: B1 constant with T174A, T316G
B5: equine IgG1 M428E (antibody, part only; not given: variable domains, not shown: another chain or arm of the molecule)
constant: B1 constant with T316G, M318E
B6: equine IgG1 M428V (antibody, part only; not given: variable domains, not shown: another chain or arm of the molecule)
constant: B1 constant with T316G, M318V
B7: equine IgG1 M428A (antibody, part only; not given: variable domains, not shown: another chain or arm of the molecule)
constant: B1 constant with T316G, M318A
B8: equine IgG1 G426W (antibody, part only; not given: variable domains, not shown: another chain or arm of the molecule)
constant: B1 constant with T316W
B9: equine IgG1 M428F (antibody, part only; not given: variable domains, not shown: another chain or arm of the molecule)
constant: B1 constant with T316G, M318F
B10: equine IgG1 G426Y (antibody, part only; not given: variable domains, not shown: another chain or arm of the molecule)
constant: B1 constant with T316Y
B11: equine IgG1 G426V (antibody, part only; not given: Variable domains, not shown: another chain or arm of the molecule)
constant: B1 constant with T316V
B12: equine IgG1 N434C (antibody, part only; not given: variable domains, not shown: another chain or arm of the molecule)
constant: B1 constant with T316G, N324C
B13: equine IgG1 M428G (antibody, part only; not given: variable domains, not shown: another chain or arm of the molecule)
constant: B1 constant with T316G, M318G
B14: equine IgG1 M428I (antibody, part only; not given: variable domains, not shown: another chain or arm of the molecule)
constant: B1 constant with T316G, M318I
B15: equine IgG1 M428H (antibody, part only; not given: variable domains, not shown: another chain or arm of the molecule)
constant: B1 constant with T316G, M318H
B16: equine IgG1 M428W (antibody, part only; not given: variable domains, not shown: another chain or arm of the molecule)
constant: B1 constant with T316G, M318W
B17: equine IgG1 M428N (antibody, part only; not given: Variable domains, not shown: another chain or arm of the molecule)
constant: B1 constant with T316G, M318N
B18: equine IgG1 M428C (antibody, part only; not given: variable domains, not shown: another chain or arm of the molecule)
constant: B1 constant with T316G, M318C
B19: equine IgG1 N434A (antibody, part only; not given: Variable domains, not shown: another chain or arm of the molecule)
constant: B1 constant with T316G, N324A
B20: equine IgG1 T286C (antibody, part only; not given: variable domains, not shown: another chain or arm of the molecule)
constant: B1 constant with T174C, T316G
B21: equine IgG1 M428Y (antibody, part only; not given: variable domains, not shown: another chain or arm of the molecule)
constant: B1 constant with T316G, M318Y
B22: equine IgG1 M428T (antibody, part only; not given: variable domains, not shown: another chain or arm of the molecule)
constant: B1 constant with T316G, M318T
B23: equine IgG1 M428K (antibody, part only; not given: variable domains, not shown: another chain or arm of the molecule)
constant: B1 constant with T316G, M318K
B24: equine IgG1 M428Q (antibody, part only; not given: Variable domains, not shown: another chain or arm of the molecule)
constant: B1 constant with T316G, M318Q
B25: equine IgG7 wild-type (antibody, part only; not given: variable domains; allotype unstated, not shown: another chain or arm of the molecule)
constant: ASTTAPKVFPLASHSAATSGSTVALGCLVSSYFPEPVTVSWNSGALTSGVHTFPSVLQSSGLYSLSSMVTVPASSLKSQTYICNVAHPASSTKVDKKIVIKECGGCPTCPECLSVGPSVFIFPPKPKDVLMISRTPTVTCVVVDVGHDFPDVQFNWYVDGVETHTATTEPKQEQNNSTYRVVSILAIQHKDWLSGKEFKCKVNNQALPAPVQKTISKPTGQPREPQVYVLAPHRDELSKNKVSVTCLVKDFYPTDIDIEWKSNGQPEPETKYSTTPAQLDSDGSYFLYSKLTVETNRWQQGTTFTCAVMHEALHNHYTEKSVSKSPGK
B26: equine IgG7 K311F mutant (antibody, part only; not given: variable domains, not shown: another chain or arm of the molecule; small tags and cut ends)
constant: B25 constant with K190F
B27: equine IgG7 A426E mutant (antibody, part only; not given: variable domains, not shown: another chain or arm of the molecule)
constant: B25 constant with A307E
B28: equine IgG7 A426K mutant (antibody, part only; not given: variable domains, not shown: another chain or arm of the molecule)
constant: B25 constant with A307K
B29: equine IgG7 A426C mutant (antibody, part only; not given: variable domains, not shown: another chain or arm of the molecule)
constant: B25 constant with A307C
B30: equine IgG7 A426M mutant (antibody, part only; not given: variable domains, not shown: another chain or arm of the molecule)
constant: B25 constant with A307M
B31: equine IgG7 K311A mutant (antibody, part only; not given: Variable domains, not shown: another chain or arm of the molecule)
constant: B25 constant with K190A
B32: equine IgG7 A426N mutant (antibody, part only; not given: Variable domains, not shown: another chain or arm of the molecule)
constant: B25 constant with A307N
B33: equine IgG7 A426L mutant (antibody, part only; not given: Variable domains, not shown: another chain or arm of the molecule)
constant: B25 constant with A307L
B34: equine IgG7 K311G mutant (antibody, part only; not given: variable domains, not shown: another chain or arm of the molecule)
constant: B25 constant with K190G
B35: equine IgG7 K311R mutant (antibody, part only; not given: variable domains, not shown: another chain or arm of the molecule)
constant: B25 constant with K190R
B36: equine IgG7 A426P mutant (antibody, part only; not given: variable domains, not shown: another chain or arm of the molecule)
constant: B25 constant with A307P
B37: equine IgG7 K311S mutant (antibody, part only; not given: variable domains, not shown: another chain or arm of the molecule)
constant: B25 constant with K190S
B38: equine IgG7 K311T mutant (antibody, part only; not given: variable domains, not shown: another chain or arm of the molecule)
constant: B25 constant with K190T
B39: equine IgG7 K311M mutant (antibody, part only; not given: variable domains, not shown: another chain or arm of the molecule)
constant: B25 constant with K190M
B40: equine IgG7 K311N mutant (antibody, part only; not given: variable domains, not shown: another chain or arm of the molecule)
constant: B25 constant with K190N
B41: equine IgG7 K311D mutant (antibody, part only; not given: Variable domains, not shown: another chain or arm of the molecule)
constant: B25 constant with K190D
B42: equine IgG7 A426I mutant (antibody, part only; not given: variable domains, not shown: another chain or arm of the molecule)
constant: B25 constant with A307I
B43: equine IgG7 A426R mutant (antibody, part only; not given: Variable domains, not shown: another chain or arm of the molecule)
constant: B25 constant with A307R
B44: equine IgG7 K311I mutant (antibody, part only; not given: variable domains, not shown: another chain or arm of the molecule)
constant: B25 constant with K190I
B45: equine IgG7 A426D mutant (antibody, part only; not given: variable domains, not shown: another chain or arm of the molecule)
constant: B25 constant with A307D
B46: equine IgG7 K311Y mutant (antibody, part only; not given: variable domains, not shown: another chain or arm of the molecule)
constant: B25 constant with K190Y
B47: equine IgG7 K311V mutant (antibody, part only; not given: variable domains, not shown: another chain or arm of the molecule)
constant: B25 constant with K190V
B48: equine IgG7 A426H mutant (antibody, part only; not given: variable domains, not shown: another chain or arm of the molecule)
constant: B25 constant with A307H
B49: equine IgG7 K311Q mutant (antibody, part only; not given: Variable domains, not shown: another chain or arm of the molecule)
constant: B25 constant with K190Q
B50: equine IgG7 K311C mutant (antibody, part only; not given: variable domains, not shown: another chain or arm of the molecule)
constant: B25 constant with K190C
B51: equine IgG7 K311H mutant (antibody, part only; not given: Variable domains, not shown: another chain or arm of the molecule)
constant: B25 constant with K190H
B52: equine IgG7 K311E mutant (antibody, part only; not given: variable domains, not shown: another chain or arm of the molecule)
constant: B25 constant with K190E
B53: equine IgG7 K311L mutant (antibody, part only; not given: variable domains, not shown: another chain or arm of the molecule)
constant: B25 constant with K190L
B54: equine IgG7 A426Q mutant (antibody, part only; not given: variable domains, not shown: another chain or arm of the molecule)
constant: B25 constant with A307Q
B55: equine IgG7 A426F mutant (antibody, part only; not given: variable domains, not shown: another chain or arm of the molecule)
constant: B25 constant with A307F
B56: equine IgG7 A426G mutant (antibody, part only; not given: variable domains, not shown: another chain or arm of the molecule)
constant: B25 constant with A307G
B57: equine IgG7 A426S mutant (antibody, part only; not given: variable domains, not shown: another chain or arm of the molecule)
constant: B25 constant with A307S
B58: equine IgG7 K311W mutant (antibody, part only; not given: variable domains, not shown: another chain or arm of the molecule)
constant: B25 constant with K190W

How the values were obtained:
[1] = biological target: equine FcRn (large alpha subunit p51) / equine beta-2-microglobulin complex, biotinylated (equine) (UniProt P30441); test: SPR (Biacore), pH 6
[2] = biological target: equine FcRn (large alpha subunit p51) in complex with equine beta-2-microglobulin (equine) (UniProt F6XZ61); test: SPR (Biacore), pH 6
Chain of UniProt F6XZ61 (F6XZ61 entry or part of it, one chain of several): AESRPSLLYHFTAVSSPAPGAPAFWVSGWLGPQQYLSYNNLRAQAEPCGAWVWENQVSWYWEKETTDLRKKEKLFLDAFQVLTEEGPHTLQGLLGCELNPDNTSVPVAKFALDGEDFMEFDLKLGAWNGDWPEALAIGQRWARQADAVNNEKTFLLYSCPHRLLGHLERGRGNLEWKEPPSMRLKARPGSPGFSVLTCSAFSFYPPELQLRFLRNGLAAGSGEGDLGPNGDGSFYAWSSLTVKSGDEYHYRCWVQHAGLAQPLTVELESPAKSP

Chain of UniProt P30441 (P30441 21-118, one chain of several): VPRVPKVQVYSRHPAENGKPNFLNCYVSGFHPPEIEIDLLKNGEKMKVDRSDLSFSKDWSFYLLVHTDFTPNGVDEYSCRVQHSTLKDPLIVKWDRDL

Row | Binder | Kd [1] [nM] | Kd [2] [nM]
1 | B1 | 9.73 | 
2 | B2 | 50.6 | 
3 | B3 | 8.76 | 
4 | B4 | 18.5 | 
5 | B5 | 43.9 | 
6 | B6 | 65.8 | 
7 | B7 | 76 | 
8 | B8 | 14.7 | 
9 | B9 | 17.3 | 
10 | B10 | 11.9 | 
11 | B11 | 8.79 | 
12 | B12 | 42.6 | 
13 | B13 | 48.8 | 
14 | B14 | 28 | 
15 | B15 | 33.1 | 
16 | B16 | 31.9 | 
17 | B17 | 51.6 | 
18 | B18 | 47.5 | 
19 | B19 | 6.54 | 
20 | B20 | 35.4 | 

Row | Binder | Kd [1] [nM] | Kd [2] [nM]
21 | B21 | 17 | 
22 | B22 | 34.8 | 
23 | B23 | 28.7 | 
24 | B24 | 32.9 | 
25 | B25 |  | 21.7
26 | B26 |  | 20.5
27 | B27 |  | 13.4
28 | B28 |  | 17.8
29 | B29 |  | 14.4
30 | B30 |  | 22.7
31 | B31 |  | 24.4
32 | B32 |  | 15.8
33 | B33 |  | 15.6
34 | B34 |  | 20.9
35 | B35 |  | 11.8
36 | B36 |  | 23.2
37 | B37 |  | 27.6
38 | B38 |  | 19.4
39 | B39 |  | 10.4
40 | B40 |  | 38

Row | Binder | Kd [1] [nM] | Kd [2] [nM]
41 | B41 |  | 34.1
42 | B42 |  | 12.6
43 | B43 |  | 35
44 | B44 |  | 15.1
45 | B45 |  | 18.9
46 | B46 |  | 18.9
47 | B47 |  | 21.3
48 | B48 |  | 18.4
49 | B49 |  | 39.5
50 | B50 |  | 15.9
51 | B51 |  | 19
52 | B52 |  | 60
53 | B53 |  | 17.3
54 | B54 |  | 18.6
55 | B55 |  | 13.2
56 | B56 |  | 13.6
57 | B57 |  | 40.4
58 | B58 |  | 22.1
